We go through 102 substances from the supplement of paper PMC11502859.
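Note: lentiviral eGFP-IRES-mCherry reporter pool sorted by FACS 96 h post-transduction, gated on mCherry-high cells, Illumina read counts normalized per million, median across four biological replicates.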

This series deals with HEK293T. Briefly: median enrichment of reporter reads in eGFP-reduced (low/intermediate) vs eGFP-high sorted cells (eGFP-extension fusion abundance) (ratio); higher = stronger loss of eGFP-fusion protein abundance (more destabilising extension).
For the substance “GRRWCFRTLSHSLPSSALCHSQPFQQPRQPLLRPFPQPDTHSH [AMOTL2]”, the median enrichment was 12.3.
The result for YGTKPRRIPPQ [CA10] reads 0.595.
To “CGGLPRRAKMAEMILKITEEREDQPEFPLDICVFLFFYFVLFFLLLLLP [SOX9]” belongs 9.11; to QSTF [ST8SIA4], 0.477; to “YGREARAAPAFLLQIWAAVARAVSPVAEPSGRCGNRRSSVAPVS [CPTP]”, 7.
To YVLCYNGVIVPKCPH [OR51F2] belongs 5.24; to “DNPHPHCFWGSLSHLSHPVSCLCLSWCLSGLLSVSFCLSVSLPTPAPSFQCSGWLSLPFSPSLSALGSVSTAGPKVKVLPLPE [CCDC97]”, 5.65; to SIFFYQEG [PTEN], 2.76.
Consider “GHPTPVPWRGSGPTLHNCLSRTVQTKGPAWKE [SLC37A1]”, for which the median enrichment was 2.83.
To WKMKIP [N4BP2L2] belongs 1.67.
The result for “WGQCLPAPPLASSSAPRVPSVDPIRPAMASYSKMV [ACO2]” reads 0.96; that for RYGWYSLHI [WASHC4], 8.03.
To “ESYNHMQLWDRSLVLGTIHTHTPSLCLWLTSQKTLVNDHSRILTRIHVTDLTQ [CPAMD8]” belongs 15.9.
Turning to YWENPLLVHLKTPNSTIICQEIKRTTP [PCP4], the median enrichment stood at 13.6.
The result for KIMRHTV [TBC1D32] reads 6.86; that for YIRRHH [IFITM2], 9.67; that for SQFNLKFLISPTTIY [TSEN2], 8.83.
For “SDARQFLDLGGLKRPPSCLLSFSVSSFLLVFFILFSFHQPSCILALQRDRDRSSAQGFSLPLFIMGGGYHPPSQSCEESGTSF [NOTCH3]”, the median enrichment was determined as 5.68.
The result for “SLYGAICPPSPSRTLEGTSAPAGLGPPLSLLQASWCLHTSGSWPRKSQQEQGMGEGRCHTTWR [CISH]” reads 4.49; that for “WAWTLEKEARSQPLAGQGRRPQEPSPPLLCVGTGGPWPVPGHSGQGPRDISTRSWRAVRIHSACPALAGQRQGRTFGKTKTVG [TCF15]”, 5.34; that for LSHA [CACNG6], 0.594.
To “GGPMGMSMAQPSYTPPQMTPHPTQLRHGPPMHSYLPSHPHHPAMMMHGGPPTHPGMTMSAQSPTMLNSVDPNVGGQVMDIHAQ [MEIS2]” belongs 2.36; to SSSSSSSSS [Ser09], 0.295; to “WTGFAYLVLTLHHHHLMPTCPHPAELLSGHSLLLPFLLPLALPGPACTPVGWKCTAGSGSGSAPLWDPTFFSSLLLK [PTPN23]”, 7.32.
The result for RQGPPLFWTP [CDHR2] reads 1.05; that for LTLQAGTVLLLSLQYIR [GTPBP2], 9.07; that for RGGMGFTDMVLIH [GABRG2], 7.24.
Consider “CVARALGVLLEAPRASRIASQLPGQPTLLQPLTRTPVIRTGAPVPWSPPWAHVLTQAQQ [OVOL1]”, for which the median enrichment stood at 8.09.
As for CGCQLGRKRETRP [CCND2], the median enrichment was found to be 0.808.
Consider SDNL [PDLIM2], for which the median enrichment is 0.365.
As to SNVIPLKRKMNNTLN [HRG], the median enrichment was determined as 0.435.
The result for QVVHIYGIWYEILICVYNT [ZNF230] reads 47.2.
For the substance YGVAQGAPGRGPGPRTL [TMEM38A], the median enrichment worked out at 0.588.
“SHGGVRSCPCSESTFPAIPGAGGACASAIPCDQAPRGRDQRGRKHCACAELSASARRASLPNQPWVPGSRLEPAINSLFLAPG [TSSK6]”: the median enrichment came to 4.1.
On to “YGPGTGGAHPATEHVRVLVLFRSPLSRCNFCSSSPTPAPSFMLLFRTQPPCPVLVVSR [STMN3]”, for which the median enrichment turned out to be 7.57.
Regarding WALGLKSQLFLSCSV [DIRAS3], the median enrichment was 35.7.
The result for EEEEEE [Glu06] reads 1.59; that for “MGNYILLCQGQQTPAVKGIPSARRLFGACMFIAPARPDRGLLHKPCLVHFFTCKGTECGLRFGTRGGFGNYGAQVIILRSFIQ [AHNAK]”, 9.08; that for “SGGLPRRAKMAEMILKITEEREDQPEFPLDICVFLFFYFVLFFLLLLLP [SOX9]”, 4.3.
On to YLVIHAFFPGQGSRVTRPPETSQEARALFK [SNX19], for which the median enrichment is 13.6.
Consider “LNFQQRPSKDILQDSVIVNIWKVLEIFIVCKYCKCIGIKLSPPLLYETAHWSL [PTHLH]”, for which the median enrichment stood at 0.919.
To WVVGSPADGSTWTWG [GABARAPL1] belongs 6.43.
Regarding YAQP [MST1], the median enrichment stood at 0.278.
To YGWGRVAASFVPTGGSHNSFDL [ELP5] belongs 5.96; to KTCIHFLQTI [BACH1], 2.97.
“SQGGTTQAPWAPRERGGIRAGQPPGCRCQEQSQAQVAPAACPVPFPKAPLHIEGRKREFRQLHSPFTPNPVFYSPEKRRESHE [STARD8]”: the median enrichment was determined as 1.09.
The result for “YASHLASWVCRSSRLAPSMYPGEIPARHPPPGPG [LSP1]” reads 4.74; that for ELQEAN [GZMB], 0.208; that for RAPPLTEAAPPTAPNKNVKTNPRT [NDUFA3], 0.588.
Turning to WWLWLQRT [FAAH], the median enrichment came to 11.2.
Take SVVPLFH [KIF22]: the median enrichment came to 0.762.
The result for LLLLLLLLLL [Leu10] reads 14.7; that for QGGDF [KIF16B], 0.225.
To YPPQGPAPPRPGE [WFIKKN1] belongs 0.52.
Regarding RNLNGHYKLSNST [ARMC4], the median enrichment was found to be 1.99.
In the case of “SLRSLRAGPSAAGSCLNTSLDMARTHRDTGQDQPCLWRQDTTIWPMAVTSCRVQSQTGNHHLRQDLPASFTFLISRALPPILC [SLC22A13]”, the median enrichment is 8.01.
Regarding KFVISFICIYVVN [HEATR5B], the median enrichment amounted to 13.7.
The result for LQIYVCYN [OR8I2] reads 6.8; that for SSS [Ser03], 0.352.
The result for EPKEVPGTVSDLERSQKENNIIK [CELA2A] reads 0; that for SNQFLGLTAM [BTN2A1], 0.367; that for YPSLCHWVECAFRAS [ARHGEF6], 7.57.
Turning to “GGLLSVLGTPGPYRTRAAALSHPLGRRYGSSVPLASMWSGGDAAPVVGTSWGDPRPSLAGLSPVPISHSGPRADILIK [GUK1]”, the median enrichment is 2.98.
The result for QPWGWTVDPTSLREGGMAGCEDNSS [POLR3H] reads 0.421; that for LNLKKSFQ [CCDC160], 1.05.
The result for “LALLSRWGLPETVCFVSPTTITATWLLPCGRRVTG [SF3B3]” reads 34.6; that for RGAGTCDRLWWHH [NAGA], 1.53; that for SGLQGRQLSFV [SYT17], 0.686.
To “STSHAYQVAELGPLGQGAQATSSFVVTKQGSPFPFLLPYFVQRTRVIYIYICICLYPSPHLSDSALGTQLWAARGAVPCGSSC [SCAMP5]” belongs 5.87; to KQEWQSKLKL [UHRF1BP1L], 0.342.
With YTKYLKMGIILI [ST8SIA6], the median enrichment was found to be 10.3.
On to RSSTRDWKDHKLKWRKDPQDT [FCGR3B], for which the median enrichment was determined as 2.73.
To EESATNYNFTIKTGKRPGMVAHACNHSTLGG [OR6C6] belongs 6.68; to WNEKYCGHLNNGLVSYNEMFSRILK [UGP2], 3.44; to GCM [BET1], 0.417.
To “EPVKNHAKAKTRSAERAHGSSRLVGDQAHLICTNCSTC [OCSTAMP]” belongs 3.35; to LFE [OR12D2], 0.755.
Regarding LFQPGPKPTGVCGRARTQEV [DNMT3B], the median enrichment is 3.86.
The result for QFLQDTVPLPFFDQLSLVASSLHKM [FCF1] reads 14.2; that for “PLAPALPTSSAWSEGAARAQQRRGGRLWPPTSRPVPAGTASPSAGRGSAPRKCLLCPGAERRCLLGAGLPPCGSCAPWPGPCP [ARHGAP39]”, 1.98; that for “RSSPTKGPPETPGTISVSSHQTLALFLLLFGDLHCQNYQFQVNFVGEFPPPPSSGSPRSNVPPATFPLWPPAELICLSHRSWC [S100A7A]”, 7.95.
To LRMKQLLSGPALPHSCASSALLSSQT [LCN12] belongs 30.4; to QLLVPPSLLVIRFPRLTP [PITRM1], 9.11; to WQAGS [IFITM5], 0.552.
Take GGGG [Gly04]: the median enrichment worked out at 5.17.
To “KPERSQDPSRQHQLTDALVVPPSSPDCARSAVPSSGHLSSLWVPPHPSPC [RBP5]” belongs 5.79; to “LFILEINLTNVMNVEKLLRGSWPLVNTREFILERNPTFVKNVAKPLSAPQPLQATREFIWKRDLTNVKNAAKPVFLRPD [ZNF727]”, 15.7; to WKLYMLRDVLLSGSIELPLSVNFKV [PDCD10], 11.
With DDDD [Asp04], the median enrichment is 0.37.
For SRPWSESAPVGILPPPCWPPFSPQPLR [PGAP3], the median enrichment amounted to 14.1.
To KRGTGGRGRGVLHEMLMLSVISGESV [FAM98C] belongs 7.54; to “KTQMRASLRLPETARPKSQVQSFPTPLKFIVSSREKQIPIHPTNRCIVWVLEVPSKLLLVRLG [PPEF1]”, 14.2.
As to “CDPPRPPEWPPPHHSTMGLDARVIVVQNRRENRPATHKGQG [TMEM151A]”, the median enrichment amounted to 4.51.
As to QAVNSTFKVI [LMNTD1], the median enrichment is 0.803.
To LSVCHR [DPYS] belongs 1.17; to RGK [PKP2], 0.513; to YNEK [PJVK], 0.295.
To “ELLTAFPKALLQKRSMSVIITWLSNLFHSMEPWRRKTLSYFVTQPGIGLFGPTRFPSPEELPRPGDQC [GRM7]” belongs 6.76.
The result for RHSELLAVEEHHAYL [YTHDC2] reads 0.354; that for ELSF [ADHFE1], 0.232; that for “QESSPPAHQGQDTWLGADAGPDVAEDSRAGRARGGGGGGGGGRRRRSRPLPTTSRRRRGARAEEPGTGDS [C6orf223]”, 0.3.
As to LNGVQAQRPLGVMTKCSCTTVLKELRLLPFF [DYTN], the median enrichment is 8.97.
